Source: patent US20160290995A1, “METHODS OF SELECTING AKT AGONISTS OR ANTAGONISTS” (OREGON HEALTH & SCIENCE UNIVERSITY, priority 2015, published 2016)

Target: PDGF-α receptor, endogenous on C3H10T1/2 mouse embryonic fibroblasts (mouse) (UniProt P26618)
Experiment: cell-based or functional assay

PDGF-α receptor, endogenous on C3H10T1/2 mouse embryonic fibroblasts (mouse), sequence (P26618 25-1089): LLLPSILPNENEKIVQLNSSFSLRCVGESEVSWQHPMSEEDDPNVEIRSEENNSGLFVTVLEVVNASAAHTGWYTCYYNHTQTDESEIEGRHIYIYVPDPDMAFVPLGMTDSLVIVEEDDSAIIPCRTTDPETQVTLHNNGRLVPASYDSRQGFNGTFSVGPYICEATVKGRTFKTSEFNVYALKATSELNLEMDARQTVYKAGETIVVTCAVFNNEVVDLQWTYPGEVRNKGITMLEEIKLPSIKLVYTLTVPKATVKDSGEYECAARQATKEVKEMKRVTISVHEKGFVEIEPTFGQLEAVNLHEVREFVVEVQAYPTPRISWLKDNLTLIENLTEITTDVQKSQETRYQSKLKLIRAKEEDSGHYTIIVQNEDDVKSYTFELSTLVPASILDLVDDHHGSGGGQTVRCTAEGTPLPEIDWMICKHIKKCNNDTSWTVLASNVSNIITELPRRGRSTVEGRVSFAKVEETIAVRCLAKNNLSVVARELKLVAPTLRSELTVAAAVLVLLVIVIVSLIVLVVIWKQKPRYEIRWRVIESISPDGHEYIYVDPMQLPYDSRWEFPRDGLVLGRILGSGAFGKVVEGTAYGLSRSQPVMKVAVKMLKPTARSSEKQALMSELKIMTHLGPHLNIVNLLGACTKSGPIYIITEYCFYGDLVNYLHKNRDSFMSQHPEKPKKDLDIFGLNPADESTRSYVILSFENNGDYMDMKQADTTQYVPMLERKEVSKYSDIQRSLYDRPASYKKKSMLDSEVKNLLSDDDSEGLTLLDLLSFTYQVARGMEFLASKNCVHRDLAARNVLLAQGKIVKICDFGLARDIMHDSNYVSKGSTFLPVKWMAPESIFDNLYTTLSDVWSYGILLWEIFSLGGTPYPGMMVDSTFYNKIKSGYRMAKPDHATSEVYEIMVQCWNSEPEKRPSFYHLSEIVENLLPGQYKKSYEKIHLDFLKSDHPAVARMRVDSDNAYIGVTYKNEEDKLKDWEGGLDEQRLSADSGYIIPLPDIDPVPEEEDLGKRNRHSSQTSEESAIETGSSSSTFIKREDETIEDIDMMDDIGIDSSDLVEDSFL

decrease in responses to sub-maximal concentrations of PDGF-BB (relative nuclear intensity of the FoxO1-clover reporter in C3H10T1/2 cells): 10%
Substance: neutralizing antibody to the PDGF-α receptor (#AF1062, R&D Systems)
